Test results from paper PMC2288612, “The Mre11 protein interacts with both Rad50 and the HerA bipolar helicase and is recruited to DNA following gamma irradiation in the archaeon Sulfolobus acidocaldarius” (BMC Molecular Biology, 2008).

T1: Rad50 recombinant protein (Sulfolobus acidocaldarius) (S. acidocaldarius, UniProt O33600 1-886)
T1 construct: Rad50, Sulfolobus acidocaldarius, purified recombinant protein; source: recombinant, purified (Ni-NTA, gel filtration through Sephadex 200)
T1 sequence (looked up): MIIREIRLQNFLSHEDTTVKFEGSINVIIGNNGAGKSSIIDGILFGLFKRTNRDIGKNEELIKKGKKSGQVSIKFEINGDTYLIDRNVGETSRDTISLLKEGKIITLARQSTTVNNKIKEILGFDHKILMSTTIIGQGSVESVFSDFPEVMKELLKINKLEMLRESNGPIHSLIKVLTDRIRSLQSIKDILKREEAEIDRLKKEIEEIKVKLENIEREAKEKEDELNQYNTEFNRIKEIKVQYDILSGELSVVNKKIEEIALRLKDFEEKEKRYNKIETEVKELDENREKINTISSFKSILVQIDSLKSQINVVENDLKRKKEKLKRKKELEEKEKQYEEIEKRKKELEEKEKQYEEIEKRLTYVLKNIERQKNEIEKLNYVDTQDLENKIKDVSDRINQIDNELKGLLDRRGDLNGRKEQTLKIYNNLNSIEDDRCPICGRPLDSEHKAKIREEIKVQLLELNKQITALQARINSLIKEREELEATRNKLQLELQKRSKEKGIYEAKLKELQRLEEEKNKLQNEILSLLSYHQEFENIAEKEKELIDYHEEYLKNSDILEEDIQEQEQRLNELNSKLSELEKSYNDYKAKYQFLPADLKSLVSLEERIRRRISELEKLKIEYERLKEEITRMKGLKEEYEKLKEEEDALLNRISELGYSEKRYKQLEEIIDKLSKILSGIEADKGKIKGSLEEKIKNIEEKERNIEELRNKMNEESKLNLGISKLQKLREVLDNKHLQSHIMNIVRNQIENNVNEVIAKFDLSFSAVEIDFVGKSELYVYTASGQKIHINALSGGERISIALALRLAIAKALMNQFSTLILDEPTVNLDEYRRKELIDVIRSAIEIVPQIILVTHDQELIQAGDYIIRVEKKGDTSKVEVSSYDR

B1: Mre11 recombinant protein (Sulfolobus acidocaldarius) (natural protein, S. acidocaldarius, UniProt Q8NKQ0 1-382, looked up)
chain: MQLLHISDTHLGKRQYNLESREKDVYDTFTQLIDIAINEHVKAVIHTGDLFDVNNPPNRAKLHAIKELKRLKDHNIPFICIAGDHDSPKRKEEIYPQRILEEFNLIKILQKIDNRVKLENVEVYGISHISNVSVNDLKEQLSKVKPETRKSILMLHQGIRTYLPYQGAWQIELSDLPKGFSLYAVGHLHSRRKDYLDGGALIEIAGSPDIMREEEIEDYQKSKKGATLIDMSGDLPSINYINVNIRDQLVLDINVDKIEQSIESVIQKLKENVKNDKKPILHIELEGTVPIRKDVLMTKLQALRDYVEHYRIYKNNIVSIKEENLKTKLKTTYSSLNDIIADYLKGIGYTDEETKIIIDIINEEDEKKVEELLKKFAGVEDK
notes: Mre11, Sulfolobus acidocaldarius, purified recombinant protein; source: recombinant, purified (Ni-NTA, gel filtration through Sephadex 200)
B2: HerA recombinant protein (Sulfolobus acidocaldarius) (natural protein, S. acidocaldarius, UniProt F2Z5Z6 1-495, looked up)
chain: MTIGYIIGSATINEATAILEQKIRAGYYVILEYDGDKILGLITNVYTGSPLLDDNLNDVKFVQRIKQLEANKIPFFIKARIKLLCKLDGKFTQPDLPPVAGTPVRLASDEELSTVFSAGDVRIGKLIGSNVEVKIRLNPLSRHLAILAATGSGKSNTVAILSQRLVEIGGSILIFDYHGEYYDSTLPNLNIIEPKLNPLYLSVNEFATLLEIRENANIQYRIIRRTFNQLKEEINNEIKEGKTSLAELNSNFFERLKVKIEEEGRNEKRKESKDEVLNKVEDFAERYSDIIDITFGDVINKIKLGKINVVNLSSLDEDAIDAIVAHYLRRILTSRKENKIKKDSGLKFPILTVVEEAHVLLSKDTNTLTKKWAGRIAREGRKFGVGLIIVSQRPKGLDENILSQMTNKIILKIVEPSDKKYVLETSDNLSEDLADGLSSLDTGEAIIIGNVVKLPTIIKIDKFEGKLSGSDPNLTEEWKRAKEEEIVHSDVSDWG
notes: HerA bipolar DNA helicase, Sulfolobus acidocaldarius, purified recombinant protein; also called HerA bipolar helicase

Target: T1, Rad50 recombinant protein (Sulfolobus …)
Assay: co-IP; anti-Rad50 purified IgGs and protein A-sepharose on a mixture of purified recombinant proteins (60 nM Rad50, Mre11 and NurA, 300 nM HerA) in IP buffer (20 mM Hepes pH 7.5, 100 mM NaCl, 15 mM MgCl2, 5 mM beta-mercaptoethanol); 4°C; immunoblot
Conditions: both partners purified

| Binder | binding result |
| --- | --- |
| B1 | binds |
| B2 | binds |
